Experimental data reported in patent US20210171576.

Target: Untagged human mitochondrial ClpP (HsClpP) (UniProt Q16740)
Sequence (Q16740 other isoform, or with tags, fused parts or gaps): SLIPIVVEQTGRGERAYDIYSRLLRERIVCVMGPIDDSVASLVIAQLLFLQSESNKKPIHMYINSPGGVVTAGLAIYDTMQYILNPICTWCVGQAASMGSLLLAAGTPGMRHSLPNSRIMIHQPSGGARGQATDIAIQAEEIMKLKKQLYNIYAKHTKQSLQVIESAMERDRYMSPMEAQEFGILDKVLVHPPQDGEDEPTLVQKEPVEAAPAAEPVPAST

Chain of Untagged human mitochondrial ClpX (HsClpX) (chain, as listed by the source): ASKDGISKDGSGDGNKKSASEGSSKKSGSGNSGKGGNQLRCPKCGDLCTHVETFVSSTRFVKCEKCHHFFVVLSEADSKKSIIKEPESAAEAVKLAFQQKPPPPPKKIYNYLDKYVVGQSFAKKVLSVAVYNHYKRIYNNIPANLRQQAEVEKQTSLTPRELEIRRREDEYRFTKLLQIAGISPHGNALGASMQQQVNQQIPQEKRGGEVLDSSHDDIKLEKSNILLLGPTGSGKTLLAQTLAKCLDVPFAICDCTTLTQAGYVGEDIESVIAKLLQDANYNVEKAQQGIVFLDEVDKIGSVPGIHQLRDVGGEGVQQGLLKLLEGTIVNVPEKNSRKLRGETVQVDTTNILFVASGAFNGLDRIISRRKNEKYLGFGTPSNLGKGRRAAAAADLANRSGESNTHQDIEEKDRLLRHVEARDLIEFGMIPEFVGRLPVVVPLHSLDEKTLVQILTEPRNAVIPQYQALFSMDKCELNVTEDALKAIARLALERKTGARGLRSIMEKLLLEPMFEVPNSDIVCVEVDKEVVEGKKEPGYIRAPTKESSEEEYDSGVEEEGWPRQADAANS

In the case of “Untagged human mitochondrial ClpX (HsClpX)”, the “Hill coefficient (h) of casein-FITC degradation by HsClpP with titrated HsClpX” value is reported as “mild positive cooperativity (h=1.25) in HsCIpP-binding”, the “K0.5 (microscopic apparent dissociation constant). Hill fit of initial rates of casein-FITC degradation; HsClpX titrated 0-18 µM against 3 µM HsClpP” value is reported as “a K0.5 of 5.7 µM” and the “Vmax of casein-FITC degradation by HsClpP with titrated HsClpX” value is reported as “a Vmax of 6.88 RFU.s^-1”.
